# According to US20250011363A1, “OPTIMIZED SHORTENED PEPTIDE THAT BINDS TO ACETYLCHOLINE RECEPTOR, AND USE THEREOF” (SKINMED CO., LTD., priority 2021, published 2025):
# Target: acetylcholine receptor
# Experiment: SPR, AchR on chip, peptide 10 uM
row,Binder,Binding affinity (RU)
1,KRYQR [5mer-199],84
2,RVLTK [5mer-499],76
3,KRVRR [5mer-200],55
4,KSLQK [5mer-500],63
5,RWIYR [5mer-201],62
6,KLQRK [5mer-501],78
7,KWYRR [5mer-202],65
8,RRISR [5mer-502],84
9,RQLTR [5mer-203],78
10,KRVSK [5mer-503],61
11,RQFQR [5mer-204],84
12,KQIQR [5mer-504],72
13,RWYYR [5mer-205],75
14,RQIYR [5mer-505],71
15,KLQLR [5mer-206],57
16,RGRLR [5mer-506],51

row,Binder,Binding affinity (RU)
1,KQVRR [5mer-207],72
2,KWVQK [5mer-507],84
3,KLICR [5mer-208],80
4,KGLQK [5mer-508],67
5,RGVRR [5mer-209],78
6,RVQRK [5mer-509],61
7,KVYYR [5mer-210],67
8,RQLSK [5mer-510],71
9,RLYYR [5mer-211],73
10,KSLSR [5mer-511],56
11,KQQYK [5mer-212],64
12,RLYLK [5mer-512],70
13,RQYTK [5mer-213],83
14,RWYYK [5mer-513],83
15,KQQCK [5mer-214],79
